# Source: the DeepSol protein solubility set
# Assay: soluble on expression in E. coli; label from the status in PepcDB or PDB records
row,Sequence,soluble on expression in E. coli
1,MIGMDHLAIGTYEGFLIGYDIDTQPNDPKTTTGCTLRYAYAAHERSIRCIAGSFPILASASVDESIKVYQLDQLQELATLYDLQVPVNSVDIQLQGGLLSGGEDGKLVYYPYGGWSKPKYLKGHKGNVHSVALHPTGQICLSVARDKCLKLWKTNGDCVCSLELPDEAFIVKWTEDGQGWVIATQTSFSVHSLQTGLIQQWEYSTRLVCLCALTNDIFVVGGMDGHLRVGENKPIQVHKVDGGSLVKGIGVGRDGCIYSLSSKGVLEMVAPSRQLEIQNGVVKRYIE,not soluble
2,MAHHHHHHMVAKRKEFELTKVIQEATFLTFKGLDTHDVYNCCVPFKISGTYHIFGRVERRSEWVNSHVRLFRKTGHDEYTLVEHAMQYQLEDPFLVKINNEALFGGVRVTKDHGKVSGYVCDFYRGKIDDLHYFTSGPQNMKDIRLVVLADGKIGVFSHHKTSNTCITGFTIIDSLDDLCSQVIDSAKPIDHTLFGDAWGGVNQPYLLSTGKIGCISHHGYLDTDAHGEVINVYCITSFVYQPSANKCYDYKILGTKNCFPDYPAKALKLIDCAFVSGIVMREDGKCDLYSGVGDTREGRMVIDYPFEGHGTIADDLDF,not soluble
3,MIKSLKQLAIQAGLEYLGEDVSIQTVAINSNEVRQDCLFVAIVANRDGHEFIPSAIANGAKAILVSKKQGLDIPQVVCGNTIKGLRALAKEYRKSLTMPIISLTGSCGKTSVKEMIVTLLGERKVHFTQGNLNNYLGVPMTILETPHDVDFAVIEAGTNVGGEIKAAADIIQPNIAMITNVGACHLENLKTLDGVMIEKGELLKALPRDGFCIVNLDDERIPNYAKLLECKKISCSMTNPKADILVLDYRATSNSYAFKIRIFSQEYDYQLPNIGKHNLFNSVLAIASVVAVGLEPKDFLQNTQNIKNYKGRFSTEKLSDKLTLIDDTYNASAGAVQAAIEDLAEFDGKKILAISSMRELGDEAENYHRKMGQWLKKANLDKIFLFGEKNLIDYVLAEYSNQNAKYYESKDELNNDLAKILDEYKSQSTKLTVKGARSFKMEEVVKFVKENL,not soluble
4,MEENTKEMIVIDSVDRYNEIFGLETRHPLVSIIDLAKSTTWPTRAWFRYEVYALYLKNVKCGDIKYGRQYYDYQDGTIVCFAPGQITDLEMLPNIQPNAHGILFHPDLIRGTALGQEIKKYSFFSYETNEALHISEEERQTVMDCLQKITIELEHSIDKHSRRLICANIGLLLDYCMRFYERQFDTRNGVNKDIIVRFEHLLNEYFEGDAPQNQGLPSVKYFADKVFLSANYFGD,not soluble
5,MGFDESSQMIDPDGELSFFKQNENRTPVTSVPSTSKAVLPFNFDDDEDDEYFKTPKIAEKKKKLPEAMAPVSEDSFDFDIAVPQSIINRIPAKTTAQPAKKYPKIPNLSAKTSSKPTEAPKTENVLKIKSKSQEIAQKPQKSTRISSFFSRTTSSTSNLTEYKRGKSAKMKHISKMEQFFVEHERDIICVGECGLDHTISQFKLTTEDFEEQETVFKWQIDLAKHFEKPLILEIPDISRNVHSRSAARRTIEILLECHVAPDQVVLHAFDGTPGDLKLGLEAGYLFSIPPSFGKSEETTQLIESIPLSQLLLETDSPALGPEKGCKNVPANLRISAEIVAKIKKLEIDDIISATSTNANRIFKF,soluble
6,MVMWVFGYGSLVWNPGFHYDEKVLGFIKGYKRVFDLACIDHRGTPEHPARTCTLEKAEEAICWGTAFCVRGGPEKERLAMEEDDPLKPAVTGVIVFTSTPDKVSNKYYLGPAPLEDMARFLSSHLAVILYIQRQIATANGPCGNNRDYLFLLEKAMHDIGFVVKGSDLDGFKRDIVFDVLSHFLFHTGHEEDYVIELANEVRKVLAESSTKKVTPVKESRASRVANKSKNNVPTAHQILPHHPEAVATTI,soluble
7,MCFFLLCFLDSFRNRDTTQSDTDVIYPRDDPRASRSHQNFGFMDPPPRYEQIFKRGGGTPSVITTREAPSVTRSTGDGSLPPSYEQAALNARRESRPQLPQGTLREVPLTAIDMEHPAMSTPSSTVLDMESEITNITNHAQACVHRYDASHANEVTRTAVAVTTESPAPAQSTSNALPELEAPEGGPPGYDTISLHNETVSTR,not soluble
8,MVGRRDGPFKPPGGLLRAFLVRVDAGHLRTVSYSTVLASTSAHSSALPPRRSPPMNAPAKSLLDIDAFPLVQVREMPRELADVERWLEEVEALLAVERDFALVYPPLPQETAEGDQQARKRLVLWLKENRQRFVEHCRGILLSANGQPDNLADLQQLAPVLQAVYGPPVSVAPDLASARGMAKALLSGPATGMNW,not soluble
9,MARLAAFDMDGTLLMPDHHLGEKTLSTLARLRERDITLTFATGRHALEMQHILGALSLDAYLITGNGTRVHSLEGELLHRDDLPADVAELVLYQQWDTRASMHIFNDDGWFTGKEIPALLQAFVYSGFRYQIIDVKKMPLGSVTKICFCGDHDDLTRLQIQLYEALGERAHLCFSATDCLEVLPVGCNKGAALTVLTQHLGLSLRDCMAFGDAMNDREMLVSVGSGFIMGNAMPQLRAELPHLPVIGHCRNQAVSHYLTHWLDYPHLPYSPE,soluble
10,MHNVVFVLGPPGSGKGTICAKIQENLNYVHLSAGDLLRAERQREGSEFGALIESHIKNGSIVPVEITCSLLENAMKACGDAKGFLVDGFPRNEDNLQGWNKQMDGKALVQFVLFLSCPVSICIERCLNRGQGRTDDNEESLKKRVETYNQQTFPIIEHFEKSGLVREVKSERPVDVVYADVEKVFDAANKK,not soluble
11,MSRYGKNLVHYIIVEHDDQRGQKPIDDDDEKNFYYHCSFTFETFFRATAFLLAPAVCAVREVPCRLTRTRYNATEYIEGYGWMISLQQGLGVAEFYRPWPLSVQLQRYTTPSRRSRFAVLTPQRKCHQNEANGQDLSLLILLSRIYPLCSNTSQTRRVAARKGKLS,not soluble
12,MGSDKIHHHHHHMKLGILEKYRRFLPVTDKTPMLSLNEGNTPLIPLVNMSRELGINIYVKYEGSNPTGSFKDRGMVVAVAKALEEGSKAIMCASTGNTSASAAAYAARAGIKAIVLIPEGKIALGKLAQAMIYGAVVLQVRGNFDKCLELVKEITSKYPITLVNSINPYRLEGQKTAAFEIVDELGDAPDYHFIPVGNAGNISAYWMGYKEYYQHGFSTKLPKMMGFQAEGAAPIVRGHPIENPETVATAIRIGNPANWEKAVRARDESGGDIDMVSDEEILRAQRLLAQKEGIFCEPASAASIAGLLKKHRQGIFRGGEIVVCTLTGNGLKDPNIVISQLEPPRIIEGRVEEILEVLDI,not soluble
13,MSEKTYELATFAGGCFWCMVKPFDELPDIHKVLSGYAGGHVENPTYEQVKAGTSGHLEVVQITFDPSIFPYEKLLNLYWPQIDPTDDGGQFFDRGPSYRTAIFYHTETQKELAEKSKHSLAESGMFKDPIVTEIRPAAPFYEAEEYHQHFYKKNPEKYATEQKESGREDFIKENWQKK,not soluble
14,MIELEGVPELIDPVMVAAFEGWNDAGDAASTAVAHLDREWKGEVFAALDAEDYYDFQVNRPTVWLDGGVRKITWPTTRLSVVRVGGEKPRDLVLVRGIEPSMRWRSFCNELLAFAHELGVELVVVLGALLGDTPHTRPVPVSGVTSDPDLARTMDLEETKYEGPTGIVGILQEACTHAGVPAVSLWAAVPHYVSQPPNPKATLALLNRLEDLIDVRIPLGELPEDARAWQVGVDQLAAEDSEVAEYVQSLEEARDTAELPEASGEAIAREFERYLRRRDGGGPAAGGHATADGSDGTSYLRDAPGGRTRPPKPPKPEAEDDGPADEGSDDSSED,not soluble
15,MGSDKIHHHHHHVTLRQRIQAMSDCNRDPVSQITDLSGALVTIVPSLLACVGMVFASNLTDVTAEALLYDYREAANPLGQRLIARVPYQDWGAELHQTPETAIIPLDLSEALGCEGPATSPSLLANFVHILPNQAIETTAIATSQIFYVLRGQGVTRVADQEIAWTEGCCLALPADAIATHYAQTDSAFYWVHDAPLLRYLGVKPDRARFQPTLYRRQDLEATLAAIAADPQSRKANRLSVLLANQNFPQTRTITHTIWAMFGLLPPDVVQAPHRHQSVALDLILDCQPGCYTLVGTQLDERGQIRNPVRVDWRPYSVFVTPPGYWHAHYNESGQEAHLLPIQDAGLHTYLRTLDILFARHNGQISDEAA,not soluble
16,MKIVCSKEQLMEGINVVQKAVPTKATLTILEGILLEAYDNFKMTGNDLELGIECLIDADILEKGSIVLNSKMFGDIVRRLPDSEVLIEVKENNTVIIECDNSHFELRGMPSDSFPSLPSIEKENMIKVSQKAIRDMIRQTLFAVSTEGTRPILTGSLIECAGNEITFVSIDGFRMALRKNFNNEGFSEFSVVVPAKTLSEIGKILQPVDEDIYIYSSQNQILFEIGNCKVVSRLLEGEYLNYKSIIPPEYETSVRLRTEDLLSSLERASLITSDEKKYPVKFNIIDDKIIITSNTEIGAVREEIRVEVNGSNMEVGFNPRYFIEALRVIDDELVDIYFNSSVGPCTIRPLEGDSFAYMILPVRINK,soluble
17,MSLTIVAMNDVVKSFTGDIILEKVSLQLEEGERVGLIGRNGEGKSTILKILKGTEGVDSGIVTSKKGAKIGLLEQLSTVDPNIIVEQYLRTSFGELEELEKELRALEGEMATNSSEKLMNRYGDKMALFGELGGYEMDANLNKVVNGLGIGSLLSQRWGDLSGGEKTKVALAHLLLQKTDLLLLDEPTNHLDLMAVEWLTAFLQHYSGTVLVVSHDRYFLDEVVEKMVELENRELIVYHTNFSGYLKEREERLLREFQDYKDQQKKIKKMQQAIKRLRQWAMQANPPNDAMFRRAKNMERALERMEKVKRPVLTQKQMQLQFDEAGRSGQEVVVMENLSKSFSEKAIVQDVSLQIRQGERVAIIGENGAGKSTLLKIMEGKVVPDVGMIKVGASVKIASLSQQMEELNEKLTVLDAFRDKVAVTEGEARQMLAGFMFYGEMVFRKVGNISGGERMRLRLAQFINMPVNTLILDEPTNHLDIASREILEEAIRAFSGTIITVSHDRYFIDQLCSKVIWLENKQLTVYEGNYSYATSKREGHHHHHH,not soluble
18,MFIGYKSSKSKKILIMNSKGGAGKSSLTMAMARLFSSKNIKTELIDLDPQNTSYFWGGNNKEIRTQTFLTSSRVPFSLALKLELDTELTIIDTPSNFNKFELDKYLSLADKIILPLQASPIDLHSILGFIKNLIASPVYKKRNIPVCFVITRYKGRVGDLELMHRVLNKLKYPIIGVMSESDAYQSLFIDEDVKVFQYLDKNLWVEIERWINI,not soluble
19,SIRLPAHLRLQPIYWSRDDVAQWLKWAENEFSLSPIDSNTFEMNGKALLLLTKEDFRYRSPHSGDVLYELLQHILKQRDLEAEAAAAEAAAKA,soluble
20,MVVCSVQRLLLNFDFSENRSRSYHFTMDGKQIATTIPPVFLFNVLESVSGTDDRVLEHHHHHH,not soluble
21,MSLAPRLKLRDITFFERPVQFARPFRFGAITMNATTQLFVRVEIEVEGRGSAVGASAELLVPKWFDKRPEFSPAQTVDGLRRSLEIARGLYLARTGFLTAFDLHAACIGAQIATCAKKNIPALAAAYGLAEIDKAILDALLRGVETGFFDGMAGNVAGIDARLSPDLKDAEIAAFLSSRKPLPRVAIRHTVGLDDTVEGKGGVADAHENAGASYFKLKLSGDPAADAARLARIGKELDTLGRSYKVTLDANEQYADLAALQALMDRLDHDSDLRPIASRLLYVEQPMPRDITRQSPLGSLAARGFIIDEADDSYDAFPAARALGYHGISSKSCKGLYKSIVSATRAAKWSGGGEKFFVTGEDLTCQAGLAVQQDLAMGAFLGVTHAERNGHHYVDGFGDTPAAEAAAFAAAHPDLYADAGQGIRLSIHDGDLLTGSLHAAGFATSVHPDWSALRPLEQPTSLQEQLAEGHHHHHH,not soluble
